Results published in patent publication US12099068B2, “Biomarkers for graft-versus-host disease” (Incyte Corporation, priority 2018, dated 2024).

system: plasma proteins; test: Plasma proteins modulated between baseline and day 28 in responders (CR, VGPR, PR; n = 19), Example 6 (Table 13); assay type: in vivo, human; conditions: plasma protein (OLINK NPX); responders (CR, VGPR, PR; n = 19); itacitinib 200 mg or 300 mg QD with corticosteroids; day 28 vs baseline
Procedure, shortened: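 Longitudinal comparison, day 28 versus baseline, with steroid-naive (N=10) and steroid-refractory (N=18) patients combined. Proteins measured by OLINK proximity extension, log2 normalized protein expression. Differences tested by t tests, ANOVA, Pearson correlation, P<0.05 significant.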

Row | Molecule | Fold Change, Decreased Expression from Baseline to Day 28 | Fold Change, Increased Expression from Baseline to Day 28
1 | THY 1 (protein, UniProt P04216 20-130, looked up) Thy-1 membrane glycoprotein: QKVTSLTACLVDQSLRLDCRHENTSSSPIQYEFSLTRETKKHVLFGTVGVPEHTYRSRTNFTSKYNMKVLYLSAFTSKDEGTYTCALHHSGHSPPISSQNVTVLRDKLVKC | −1.2913 | 
2 | KAZALD1 (protein, UniProt Q96I82 31-304, looked up) Kazal-type serine protease …: RPSPGPDYLRRGWMRLLAEGEGCAPCRPEECAAPRGCLAGRVRDACGCCWECANLEGQLCDLDPSAHFYGHCGEQLECRLDTGGDLSRGEVPEPLCACRSQSPLCGSDGHTYSQICRLQEAARARPDANLTVAHPGPCESGPQIVSHPYDTWNVTGQDVIFGCEVFAYPMASIEWRKDGLDIQLPGDDPHISVQFRGGPQRFEVTGWLQIQAVRPSDEGTYRCLGRNALGQVEAPASLTVLTPDQLNSTGIPQLRSLNLVPEEEAESEENDDYY |  | 1.2609
3 | SERPINA12 (protein, UniProt Q8IW75 21-414, looked up) Serpin A12: LKPSFSPRNYKALSEVQGWKQRMAAKELARQNMDLGFKLLKKLAFYNPGRNIFLSPLSISTAFSMLCLGAQDSTLDEIKQGFNFRKMPEKDLHEGFHYIIHELTQKTQDLKLSIGNTLFIDQRLQPQRKFLEDAKNFYSAETILTNFQNLEMAQKQINDFISQKTHGKINNLIENIDPGTVMLLANYIFFRARWKHEFDPNVTKEEDFFLEKNSSVKVPMMFRSGIYQVGYDDKLSCTILEIPYQKNITAIFILPDEGKLKHLEKGLQVDTFSRWKTLLSRRVVDVSVPRLHMTGTFDLKKTLSYIGVSKIFEEHGDLTKIAPHRSLKVGEAVHKAELKMDERGTEGAAGTGAQTLPMETPLVVKIDKPYLLLIYSEKIPSVLFLGKIVNPIGK |  | 1.567
4 | STX8 (protein, UniProt Q9UNK0 1-236, looked up) Syntaxin-8: MAPDPWFSTYDSTCQIAQEIAEKIQQRNQYERKGEKAPKLTVTIRALLQNLKEKIALLKDLLLRAVSTHQITQLEGDRRQNLLDDLVTRERLLLASFKNEGAEPDLIRSSLMSEEAKRGAPNPWLFEEPEETRGLGFDEIRQQQQKIIQEQDAGLDALSSIISRQKQMGQEIGNELDEQNEIIDDLANLVENTDEKLRNETRRVNMVDRKSASCGMIMVILLLLVAIVVVAVWPTN | −1.4796 | 
5 | TACSTD2 (protein, UniProt P09758 27-323, looked up) Tumor-associated calcium …: HTAAQDNCTCPTNKMTVCSPDGPGGRCQCRALGSGMAVDCSTLTSKCLLLKARMSAPKNARTLVRPSEHALVDNDGLYDPDCDPEGRFKARQCNQTSVCWCVNSVGVRRTDKGDLSLRCDELVRTHHILIDLRHRPTAGAFNHSDLDAELRRLFRERYRLHPKFVAAVHYEQPTIQIELRQNTSQKAAGDVDIGDAAYYFERDIKGESLFQGRGGLDLRVRGEPLQVERTLIYYLDEIPPKFSMKRLTAGLIAVIVVVVVALVAGMAVLVITNRRKSGKYKKVEIKELGELRKEPSL |  | 1.1931
6 | ITGB1BP2 (protein, UniProt Q9UKP3 1-347, looked up) Integrin beta-1-binding …: MSLLCRNKGCGQHFDPNTNLPDSCCHHPGVPIFHDALKGWSCCRKRTVDFSEFLNIKGCTMGPHCAEKLPEAPQPEGPATSSSLQEQKPLNVIPKSAETLRRERPKSELPLKLLPLNISQALEMALEQKELDQEPGAGLDSLIRTGSSCQNPGCDAVYQGPESDATPCTYHPGAPRFHEGMKSWSCCGIQTLDFGAFLAQPGCRVGRHDWGKQLPASCRHDWHQTDSLVVVTVYGQIPLPAFNWVKASQTELHVHIVFDGNRVFQAQMKLWGVINVEQSSVFLMPSRVEISLVKADPGSWAQLEHPDALAKKARAGVVLEMDEEESDDSDDDLSWTEEEEEEEAMGE | −1.8787 | 
7 | REN (protein, UniProt P00797 67-406, looked up) Renin: LTLGNTTSSVILTNYMDTQYYGEIGIGTPPQTFKVVFDTGSSNVWVPSSKCSRLYTACVYHKLFDASDSSSYKHNGTELTLRYSTGTVSGFLSQDIITVGGITVTQMFGEVTEMPALPFMLAEFDGVVGMGFIEQAIGRVTPIFDNIISQGVLKEDVFSFYYNRDSENSQSLGGQIVLGGSDPQHYEGNFHYINLIKTGVWQIQMKGVSVGSSTLLCEDGCLALVDTGASYISGSTSSIEKLMEALGAKKRLFDYVVKCNEGPTLPDISFHLGGKEYTLTSADYVFQESYSSKKLCTLAIHAMDIPPPTGPTWALGATFIRKFYTEFDRRNNRIGFALAR |  | 1.4074
8 | CD200R1 (protein, UniProt Q8TD46 25-348, looked up) Cell surface glycoprotein …: EGAAQPNNSLMLQTSKENHALASSSLCMDEKQITQNYSKVLAEVNTSWPVKMATNAVLCCPPIALRNLIIITWEIILRGQPSCTKAYKKETNETKETNCTDERITWVSRPDQNSDLQIRTVAITHDGYYRCIMVTPDGNFHRGYHLQVLVTPEVTLFQNRNRTAVCKAVAGKPAAHISWIPEGDCATKQEYWSNGTVTVKSTCHWEVHNVSTVTCHVSHLTGNKSLYIELLPVPGAKKSAKLYIPYIILTIIILTIVGFIWLLKVNGCRKYKLNKTESTPVVEEDEMQPYASYTEKNNPLYDTTNKVKASEALQSEVDTDLHTL | −1.4752 | 
9 | PRKRA (protein, UniProt O75569 1-313, looked up) Interferon-inducible …: MSQSRHRAEAPPLEREDSGTFSLGKMITAKPGKTPIQVLHEYGMKTKNIPVYECERSDVQIHVPTFTFRVTVGDITCTGEGTSKKLAKHRAAEAAINILKANASICFAVPDPLMPDPSKQPKNQLNPIGSLQELAIHHGWRLPEYTLSQEGGPAHKREYTTICRLESFMETGKGASKKQAKRNAAEKFLAKFSNISPENHISLTNVVGHSLGCTWHSLRNSPGEKINLLKRSLLSIPNTDYIQLLSEIAKEQGFNITYLDIDELSANGQYQCLAELSTSPITVCHGSGISCGNAQSDAAHNALQYLKIIAERK | −1.2761 | 
10 | NINJ1 (protein, UniProt Q92982 1-152, looked up) Ninjurin-1: MDSGTEEYELNGGLPPGTPGSPDASPARWGWRHGPINVNHYASKKSAAESMLDIALLMANASQLKAVVEQGPSFAFYVPLVVLISISLVLQIGVGVLLIFLVKYDLNNPAKHAKLDFLNNLATGLVFIIVVVNIFITAFGVQKPLMDMAPQQ |  | 1.2723
11 | SERPINA9 (protein, UniProt Q86WD7 24-417, looked up) Serpin A9: ANAPSAYPRPSSTKSTPASQVYSLNTDFAFRLYRRLVLETPSQNIFFSPVSVSTSLAMLSLGAHSVTKTQILQGLGFNLTHTPESAIHQGFQHLVHSLTVPSKDLTLKMGSALFVKKELQLQANFLGNVKRLYEAEVFSTDFSNPSIAQARINSHVKKKTQGKVVDIIQGLDLLTAMVLVNHIFFKAKWEKPFHPEYTRKNFPFLVGEQVTVHVPMMHQKEQFAFGVDTELNCFVLQMDYKGDAVAFFVLPSKGKMRQLEQALSARTLRKWSHSLQKRWIEVFIPRFSISASYNLETILPKMGIQNVFDKNADFSGIAKRDSLQVSKATHKAVLDVSEEGTEATAATTTKFIVRSKDGPSYFTVSFNRTFLMMITNKATDGILFLGKVENPTKS |  | 1.5418
12 | CD84 (protein, UniProt Q9UIB8 22-345, looked up) SLAM family member 5: KDSEIFTVNGILGESVTFPVNIQEPRQVKIIAWTSKTSVAYVTPGDSETAPVVTVTHRNYYERIHALGPNYNLVISDLRMEDAGDYKADINTQADPYTTTKRYNLQIYRRLGKPKITQSLMASVNSTCNVTLTCSVEKEEKNVTYNWSPLGEEGNVLQIFQTPEDQELTYTCTAQNPVSNNSDSISARQLCADIAMGFRTHHTGLLSVLAMFFLLVLILSSVFLFRLFKRRQGRIFPEGSCLNTFTKNPYAASKKTIYTYIMASRNTQPAESRIYDEILQSKVLPSKEEPVNTVYSEVQFADKMGKASTQDSKPPGTSSYEIVI | −1.7208 | 
13 | LY9 (protein, UniProt Q9HBG7 48-655, looked up) T-lymphocyte surface antigen …: KDSAPTVVSGILGGSVTLPLNISVDTEIENVIWIGPKNALAFARPKENVTIMVKSYLGRLDITKWSYSLCISNLTLNDAGSYKAQINQRNFEVTTEEEFTLFVYEQLQEPQVTMKSVKVSENFSCNITLMCSVKGAEKSVLYSWTPREPHASESNGGSILTVSRTPCDPDLPYICTAQNPVSQRSSLPVHVGQFCTDPGASRGGTTGETVVGVLGEPVTLPLALPACRDTEKVVWLFNTSIISKEREEAATADPLIKSRDPYKNRVWVSSQDCSLKISQLKIEDAGPYHAYVCSEASSVTSMTHVTLLIYRRLRKPKITWSLRHSEDGICRISLTCSVEDGGNTVMYTWTPLQKEAVVSQGESHLNVSWRSSENHPNLTCTASNPVSRSSHQFLSENICSGPERNTKLWIGLFLMVCLLCVGIFSWCIWKRKGRCSVPAFCSSQAEAPADTPEPTAGHTLYSVLSQGYEKLDTPLRPARQQPTPTSDSSSDSNLTTEEDEDRPEVHKPISGRYEVFDQVTQEGAGHDPAPEGQADYDPVTPYVTEVESVVGENTMYAQVFNLQGKTPVSQKEESSATIYCSIRKPQVVPPPQQNDLEIPESPTYENFT | −1.4447 | 
14 | APLP1 (protein, UniProt P51693 39-650, looked up) Amyloid beta precursor like …: SLAGGSPGAAEAPGSAQVAGLCGRLTLHRDLRTGRWEPDPQRSRRCLRDPQRVLEYCRQMYPELQIARVEQATQAIPMERWCGGSRSGSCAHPHHQVVPFRCLPGEFVSEALLVPEGCRFLHQERMDQCESSTRRHQEAQEACSSQGLILHGSGMLLPCGSDRFRGVEYVCCPPPGTPDPSGTAVGDPSTRSWPPGSRVEGAEDEEEEESFPQPVDDYFVEPPQAEEEEETVPPPSSHTLAVVGKVTPTPRPTDGVDIYFGMPGEISEHEGFLRAKMDLEERRMRQINEVMREWAMADNQSKNLPKADRQALNEHFQSILQTLEEQVSGERQRLVETHATRVIALINDQRRAALEGFLAALQADPPQAERVLLALRRYLRAEQKEQRHTLRHYQHVAAVDPEKAQQMRFQVHTHLQVIEERVNQSLGLLDQNPHLAQELRPQIQELLHSEHLGPSELEAPAPGGSSEDKGGLQPPDSKDDTPMTLPKGSTEQDAASPEKEKMNPLEQYERKVNASVPRGFPFHSSEIQRDELAPAGTGVSREAVSGLLIMGAGGGSLIVLSMLLLRRKKPYGAISHGVVEVDPMLTLEEQQLRELQRHGYENPTYRFLEERP |  | 1.4933
